Measured values: article doi:10.1101/701250 (bioRxiv, 2019)
Like-named read-outs stand apart in the source and are kept apart here.

B1: KAP3 (separately purified) (natural protein, Mus musculus, UniProt P70188-1 1-793, looked up)
chain: MQGEDARYLKRKVKGGNIDVHPSEKALIVQYEVEATILGEMGDPMLGERKECQKIIRLKSLNANTDITSLARKVVEECKLIHPSKLSEVEQLLYYLQNRRDSLPGKEKKEKSSKPKDPPPFEGMEIDEVANINDMDEYIELLYEDIPDKVRGSALILQLARNPDNLEELLLNETALGALARVLREDWKQSVELATNIIYIFFCFSSFSHFHGLITHYKIGALCMNIIDHELKRHELWQEELSKKKKAVDEDLENQTLRKDYDKTFKKYQGLVVKQEQLLRVALYLLLNLAEDTRTELKMRNKNIVHMLVKALDRDNFELLILVVSFLKKLSIFMENKNDMVEMDIVEKLVKMIPCEHEDLLNITLRLLLNLSFDTGLRNKMVQVGLLPKLTALLGNENYKQIAMCVLYHISMDDRFKSMFAYTDCIPQLMKMLFECSDERIDLELISFCINLAANKRNVQLICEGNGLKMLMKRALKLKDPLLMKMIRNISQHDGPTKNLFIDYVGDLAAQISSDEEEEFVIECLGTLANLTIPDLDWELVLKEYKLVPFLKDKLKPGAAEDDLVLEVVIMIGTVSMDDSCAALLAKSGIIPALIELLNAQQEDDEFVCQIIYVFYQMVFHQATRDVIIKETQAPAYLIDLMHDKNNEIRKVCDNTLDIIAEYDEEWAKKIQSEKFRWHNSQWLEMVESRQLDESEQYLYGDDRIEPYIHEGDILERPDLFYNSDGLITSEGAISPDFFNDFHLQNGDVVGQHAFPGSLGMDGFGQPLGILGRPATAYGFRPDEPYYYSFGSR
B2: homodimeric KIF3A-SNAP labelled with Alexa647 or TMR (natural protein, Mus musculus, UniProt P28741 1-701, looked up)
chain: MPINKSEKPESCDNVKVVVRCRPLNEREKSMCYRQAVSVDEMRGTITVHKTDSSNEPPKTFTFDTVFGPESKQLDVYNLTARPIIDSVLEGYNGTIFAYGQTGTGKTFTMEGVRAVPGLRGVIPNSFAHIFGHIAKAEGDTRFLVRVSYLEIYNEEVRDLLGKDQTQRLEVKERPDVGVYIKDLSAYVVNNADDMDRIMTLGHKNRSVGATNMNEHSSRSHAIFTITIECSEKGVDGNMHVRMGKLHLVDLAGSERQAKTGATGQRLKEATKINLSLSTLGNVISALVDGKSTHVPYRNSKLTRLLQDSLGGNSKTMMCANIGPADYNYDETISTLRYANRAKNIKNKARINEDPKDALLRQFQKEIEELKKKLEEGEEVSGSDISGSEEDDEEGELGEDGEKKKKRRDQAGKKKVSPDKMVEMQAKIDEERKALETKLDMEEEERNKARAELERREKDLLKAQQEHQSLLEKLSALEKKVIVGGVDLLAKAEEQEKLLEESNMELEERRRRAEQLRKELEEKEQERLDIEEKYTSLQEEAQGKTKKLKKVWTMLMAAKSEMADLQQEHQREIEGLLENIRQLSRELRLQMLIIDNFIPQDYQEMIENYVHWNEDIGEWQLKCVAYTGNNMRKQTPVPDKKERDPFEVDLSHVYLAYTEESLRQSLMKLERPRTSKGKARPKMGRRKRSAKPETVIDSLLQ
modifications: Alexa647 or TMR on the SNAP tag
B3: KIF3A purified from E. coli (natural protein, Mus musculus, UniProt P28741 1-701, looked up)
chain: B2 chain

Key:
[1] = biological target: B3; assay: SEC-MALS
[2] = biological target: full-length APC-GFP (Mus musculus, UniProt Q61315 1-2845); assay: MST
[3] = biological target: the molecule itself
[4] = biological target: the molecule itself; assay: SEC-MALS

Chain of full-length APC-GFP (Q61315 whole entry): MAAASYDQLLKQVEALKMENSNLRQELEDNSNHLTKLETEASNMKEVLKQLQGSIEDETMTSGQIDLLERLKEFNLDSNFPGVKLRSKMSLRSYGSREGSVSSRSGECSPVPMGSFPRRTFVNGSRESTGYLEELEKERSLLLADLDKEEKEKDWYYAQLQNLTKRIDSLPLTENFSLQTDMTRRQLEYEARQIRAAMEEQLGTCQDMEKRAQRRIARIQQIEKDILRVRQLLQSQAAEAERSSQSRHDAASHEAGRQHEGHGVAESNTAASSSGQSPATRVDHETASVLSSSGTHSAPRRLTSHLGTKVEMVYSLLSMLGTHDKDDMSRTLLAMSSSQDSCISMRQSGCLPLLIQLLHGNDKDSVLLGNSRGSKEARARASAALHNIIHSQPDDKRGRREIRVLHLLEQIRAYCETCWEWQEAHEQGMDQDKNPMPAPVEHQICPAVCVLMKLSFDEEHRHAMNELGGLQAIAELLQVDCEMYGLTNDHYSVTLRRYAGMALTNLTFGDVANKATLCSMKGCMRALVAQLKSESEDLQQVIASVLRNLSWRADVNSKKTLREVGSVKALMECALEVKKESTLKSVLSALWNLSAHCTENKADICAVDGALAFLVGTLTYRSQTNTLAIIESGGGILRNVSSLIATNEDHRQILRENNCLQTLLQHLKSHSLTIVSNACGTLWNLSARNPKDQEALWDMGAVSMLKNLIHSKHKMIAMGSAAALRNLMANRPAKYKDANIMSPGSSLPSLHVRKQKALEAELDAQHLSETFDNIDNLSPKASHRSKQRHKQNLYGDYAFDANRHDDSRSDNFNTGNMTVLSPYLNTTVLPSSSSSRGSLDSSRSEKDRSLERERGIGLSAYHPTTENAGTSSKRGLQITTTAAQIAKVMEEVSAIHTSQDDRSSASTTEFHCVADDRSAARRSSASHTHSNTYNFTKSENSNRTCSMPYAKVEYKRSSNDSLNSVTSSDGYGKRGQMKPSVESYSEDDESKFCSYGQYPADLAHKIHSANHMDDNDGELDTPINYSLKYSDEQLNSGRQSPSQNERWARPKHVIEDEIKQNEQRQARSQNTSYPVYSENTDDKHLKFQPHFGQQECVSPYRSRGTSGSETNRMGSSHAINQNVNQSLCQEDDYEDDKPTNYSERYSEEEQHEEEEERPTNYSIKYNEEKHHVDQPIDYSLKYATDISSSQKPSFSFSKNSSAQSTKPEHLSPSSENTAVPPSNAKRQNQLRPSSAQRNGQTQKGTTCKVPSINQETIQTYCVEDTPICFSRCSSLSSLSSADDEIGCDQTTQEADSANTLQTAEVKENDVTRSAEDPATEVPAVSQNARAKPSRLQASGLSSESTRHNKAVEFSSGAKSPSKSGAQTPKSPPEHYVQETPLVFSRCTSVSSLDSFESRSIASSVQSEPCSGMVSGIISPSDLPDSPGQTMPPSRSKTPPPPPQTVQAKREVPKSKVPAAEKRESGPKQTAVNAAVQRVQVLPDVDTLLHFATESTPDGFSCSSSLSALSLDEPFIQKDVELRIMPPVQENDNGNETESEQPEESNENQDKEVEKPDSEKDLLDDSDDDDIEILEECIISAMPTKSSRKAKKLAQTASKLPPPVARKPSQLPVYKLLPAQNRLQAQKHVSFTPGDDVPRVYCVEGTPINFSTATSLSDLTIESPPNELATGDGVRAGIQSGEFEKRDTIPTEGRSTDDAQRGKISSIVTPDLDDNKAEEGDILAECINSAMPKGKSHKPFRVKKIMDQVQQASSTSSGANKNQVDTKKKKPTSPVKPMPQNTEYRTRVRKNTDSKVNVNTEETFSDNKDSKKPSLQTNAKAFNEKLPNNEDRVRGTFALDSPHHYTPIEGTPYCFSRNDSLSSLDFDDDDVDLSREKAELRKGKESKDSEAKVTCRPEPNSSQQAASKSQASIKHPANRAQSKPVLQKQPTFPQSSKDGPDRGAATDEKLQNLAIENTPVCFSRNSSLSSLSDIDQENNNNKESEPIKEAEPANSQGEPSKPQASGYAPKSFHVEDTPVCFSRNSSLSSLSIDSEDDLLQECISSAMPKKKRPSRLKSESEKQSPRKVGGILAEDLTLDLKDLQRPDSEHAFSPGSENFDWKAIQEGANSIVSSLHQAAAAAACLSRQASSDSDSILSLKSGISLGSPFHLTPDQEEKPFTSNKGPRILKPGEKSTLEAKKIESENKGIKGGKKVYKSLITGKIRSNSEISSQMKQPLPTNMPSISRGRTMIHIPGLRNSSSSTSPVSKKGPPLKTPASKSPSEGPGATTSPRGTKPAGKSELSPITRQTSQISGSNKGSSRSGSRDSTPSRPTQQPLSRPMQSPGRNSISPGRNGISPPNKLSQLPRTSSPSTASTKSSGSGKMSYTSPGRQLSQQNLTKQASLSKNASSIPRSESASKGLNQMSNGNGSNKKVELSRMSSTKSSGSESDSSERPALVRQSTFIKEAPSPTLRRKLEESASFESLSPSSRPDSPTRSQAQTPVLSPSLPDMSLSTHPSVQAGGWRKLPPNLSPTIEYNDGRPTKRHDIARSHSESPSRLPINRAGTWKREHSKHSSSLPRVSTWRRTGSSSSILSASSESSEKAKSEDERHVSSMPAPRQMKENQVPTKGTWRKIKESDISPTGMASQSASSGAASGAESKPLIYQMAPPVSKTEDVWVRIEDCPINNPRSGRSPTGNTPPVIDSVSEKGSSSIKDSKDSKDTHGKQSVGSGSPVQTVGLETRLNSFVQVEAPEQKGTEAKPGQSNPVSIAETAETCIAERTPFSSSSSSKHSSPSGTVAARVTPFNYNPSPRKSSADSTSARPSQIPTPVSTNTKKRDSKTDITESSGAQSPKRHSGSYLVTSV

Binder: B1
stoichiometry N [1]: 1 KAP3 per KIF3A dimer | binding result [2]: binds

Binder: B2
stoichiometry N [3]: 2

Binder: B3
stoichiometry N [4]: 2
